In this assay the target is T1, Calmodulin from bovine brain (bovine, UniProt P62157 1-149).
T1 construct: calmodulin, bovine, purified from brain; also called purified bovine brain CaM; CaM; source: bought: Sigma-Aldrich Cat#208694, purified from bovine brain
Put plainly: SPR; Biacore 3000, 25 °C; biotinylated peptides captured on a streptavidin chip; CaM injected at 13.2 nM to 9.6 µM; HBSP (10 mM HEPES pH 7.4, 150 mM NaCl, 0.005% P20) with 1 mM CaCl2; equilibrium analysis, apparent KD. The settings on record: both partners purified.

The values that follow come from article PMC9616786 (Cellular and Molecular Life Sciences, 2022).

Where no end group is shown, it is not given here. The star is where a group is joined. Biotin = O=C1N[C@H]2[C@H](CS[C@H]2CCCCC(=O)*)N1

B1: Peptide INF2 2-19 L14L18A, biotinylated (for surface plasmon resonance) (peptide)
peptide: K(Biotin)GGSVKEGAQRKWAAAKEKAG
notes: added N-terminal K (biotinylated) and two G residues as spacer; INF2, human, amino acids 2-19 with L14A and L18A; also called double L14L18A 2-19 peptide mutant; source: synthetic peptide (Proteomics Facility, CNB, CSIC), HPLC purified
Regarding B1, the binding result is reported as “binds”.
